{
  "source": "the supplement of paper PMC9112550",
  "about": "“Optimization of the antimicrobial peptide Bac7 by deep mutational scanning” (BMC Biology, 2022);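 also: peptides expressed intracellularly from a pBAD plasmid library in pooled LB shake-flask culture, induced with 0.3% L-arabinose, DNA abundance read by NGS, three biological replicates, DESeq2 with apeglm shrinkage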",
  "data": [
    {"system": "Escherichia coli TOP10", "experiment": "shrunken log2 fold change of peptide-encoding DNA abundance (4.5 h post-induction vs induction); higher = less antimicrobial activity (less host growth inhibition)", "conditions": "time post-induction: 4.5 h; library: site-saturation at positions 5, 18, 19, 20", "values": [
      {"sequence": "RRIRGRPPRLPRPRPRPKALPRP", "shrunken log2 fold change": 0.0797},
      {"sequence": "RRIRGRPPRLPRPRPRPKCAPRP", "shrunken log2 fold change": 1.61},
      {"sequence": "RRIRGRPPRLPRPRPRPKCFPRP", "shrunken log2 fold change": 0.852},
      {"sequence": "RRIRGRPPRLPRPRPRPKCTPRP", "shrunken log2 fold change": 0.978},
      {"sequence": "RRIRGRPPRLPRPRPRPKCWPRP", "shrunken log2 fold change": 1.09},
      {"sequence": "RRIRGRPPRLPRPRPRPKECPRP", "shrunken log2 fold change": 0.0235},
      {"sequence": "RRIRGRPPRLPRPRPRPKEDPRP", "shrunken log2 fold change": 0.796},
      {"sequence": "RRIRGRPPRLPRPRPRPKEGPRP", "shrunken log2 fold change": 1.62},
      {"sequence": "RRIRGRPPRLPRPRPRPKENPRP", "shrunken log2 fold change": 0.791},
      {"sequence": "RRIRGRPPRLPRPRPRPKEVPRP", "shrunken log2 fold change": 0.00437},
      {"sequence": "RRIRGRPPRLPRPRPRPKEWPRP", "shrunken log2 fold change": -0.00523},
      {"sequence": "RRIRGRPPRLPRPRPRPKFEPRP", "shrunken log2 fold change": 0.411},
      {"sequence": "RRIRGRPPRLPRPRPRPKFGPRP", "shrunken log2 fold change": 0.241},
      {"sequence": "RRIRGRPPRLPRPRPRPKGGPRP", "shrunken log2 fold change": 0.901},
      {"sequence": "RRIRGRPPRLPRPRPRPKGHPRP", "shrunken log2 fold change": 0.67},
      {"sequence": "RRIRGRPPRLPRPRPRPKGQPRP", "shrunken log2 fold change": 0.184},
      {"sequence": "RRIRGRPPRLPRPRPRPKGRPRP", "shrunken log2 fold change": 0.792},
      {"sequence": "RRIRGRPPRLPRPRPRPKGWPRP", "shrunken log2 fold change": 1.46},
      {"sequence": "RRIRGRPPRLPRPRPRPKHEPRP", "shrunken log2 fold change": 0.679},
      {"sequence": "RRIRGRPPRLPRPRPRPKHNPRP", "shrunken log2 fold change": 0.203},
      {"sequence": "RRIRGRPPRLPRPRPRPKHWPRP", "shrunken log2 fold change": 0.646},
      {"sequence": "RRIRGRPPRLPRPRPRPKISPRP", "shrunken log2 fold change": 0.477},
      {"sequence": "RRIRGRPPRLPRPRPRPKKGPRP", "shrunken log2 fold change": 0.765},
      {"sequence": "RRIRGRPPRLPRPRPRPKLHPRP", "shrunken log2 fold change": 0.64},
      {"sequence": "RRIRGRPPRLPRPRPRPKLKPRP", "shrunken log2 fold change": 0.862},
      {"sequence": "RRIRGRPPRLPRPRPRPKMAPRP", "shrunken log2 fold change": 0.0451},
      {"sequence": "RRIRGRPPRLPRPRPRPKMIPRP", "shrunken log2 fold change": 0.425},
      {"sequence": "RRIRGRPPRLPRPRPRPKMLPRP", "shrunken log2 fold change": 0.509},
      {"sequence": "RRIRGRPPRLPRPRPRPKNDPRP", "shrunken log2 fold change": 0.698},
      {"sequence": "RRIRGRPPRLPRPRPRPKNGPRP", "shrunken log2 fold change": 0.0583},
      {"sequence": "RRIRGRPPRLPRPRPRPKNQPRP", "shrunken log2 fold change": 0.551},
      {"sequence": "RRIRGRPPRLPRPRPRPKQAPRP", "shrunken log2 fold change": 0.865},
      {"sequence": "RRIRGRPPRLPRPRPRPKQDPRP", "shrunken log2 fold change": 0.881},
      {"sequence": "RRIRGRPPRLPRPRPRPKRAPRP", "shrunken log2 fold change": 1.11},
      {"sequence": "RRIRGRPPRLPRPRPRPKRDPRP", "shrunken log2 fold change": 0.738},
      {"sequence": "RRIRGRPPRLPRPRPRPKRFPRP", "shrunken log2 fold change": -0.0242},
      {"sequence": "RRIRGRPPRLPRPRPRPKSHPRP", "shrunken log2 fold change": 0.536},
      {"sequence": "RRIRGRPPRLPRPRPRPKSMPRP", "shrunken log2 fold change": 0.366},
      {"sequence": "RRIRGRPPRLPRPRPRPKSYPRP", "shrunken log2 fold change": 0.685},
      {"sequence": "RRIRGRPPRLPRPRPRPKTAPRP", "shrunken log2 fold change": 0.808},
      {"sequence": "RRIRGRPPRLPRPRPRPKTVPRP", "shrunken log2 fold change": 0.662},
      {"sequence": "RRIRGRPPRLPRPRPRPKWCPRP", "shrunken log2 fold change": 0.113},
      {"sequence": "RRIRGRPPRLPRPRPRPKYIPRP", "shrunken log2 fold change": 0.167},
      {"sequence": "RRIRGRPPRLPRPRPRPLAGPRP", "shrunken log2 fold change": 0.887},
      {"sequence": "RRIRGRPPRLPRPRPRPLAVPRP", "shrunken log2 fold change": 0.809},
      {"sequence": "RRIRGRPPRLPRPRPRPLCVPRP", "shrunken log2 fold change": 0.689},
      {"sequence": "RRIRGRPPRLPRPRPRPLCWPRP", "shrunken log2 fold change": 0.774},
      {"sequence": "RRIRGRPPRLPRPRPRPLDNPRP", "shrunken log2 fold change": 0.244},
      {"sequence": "RRIRGRPPRLPRPRPRPLGQPRP", "shrunken log2 fold change": 0.756},
      {"sequence": "RRIRGRPPRLPRPRPRPLIWPRP", "shrunken log2 fold change": 0.602},
      {"sequence": "RRIRGRPPRLPRPRPRPLNGPRP", "shrunken log2 fold change": 0.11},
      {"sequence": "RRIRGRPPRLPRPRPRPLNVPRP", "shrunken log2 fold change": -0.095},
      {"sequence": "RRIRGRPPRLPRPRPRPLPHPRP", "shrunken log2 fold change": 0.638},
      {"sequence": "RRIRGRPPRLPRPRPRPLQIPRP", "shrunken log2 fold change": 0.803},
      {"sequence": "RRIRGRPPRLPRPRPRPLQTPRP", "shrunken log2 fold change": 1.59},
      {"sequence": "RRIRGRPPRLPRPRPRPLRGPRP", "shrunken log2 fold change": 1.29},
      {"sequence": "RRIRGRPPRLPRPRPRPLSHPRP", "shrunken log2 fold change": 0.557},
      {"sequence": "RRIRGRPPRLPRPRPRPLTAPRP", "shrunken log2 fold change": 0.998},
      {"sequence": "RRIRGRPPRLPRPRPRPLTTPRP", "shrunken log2 fold change": 1.82},
      {"sequence": "RRIRGRPPRLPRPRPRPLWWPRP", "shrunken log2 fold change": 0.458},
      {"sequence": "RRIRGRPPRLPRPRPRPMAWPRP", "shrunken log2 fold change": 0.743},
      {"sequence": "RRIRGRPPRLPRPRPRPMDAPRP", "shrunken log2 fold change": 0.322},
      {"sequence": "RRIRGRPPRLPRPRPRPMDFPRP", "shrunken log2 fold change": 0.213},
      {"sequence": "RRIRGRPPRLPRPRPRPMDGPRP", "shrunken log2 fold change": -0.0481},
      {"sequence": "RRIRGRPPRLPRPRPRPMFDPRP", "shrunken log2 fold change": 0.662},
      {"sequence": "RRIRGRPPRLPRPRPRPMFPPRP", "shrunken log2 fold change": 0.193},
      {"sequence": "RRIRGRPPRLPRPRPRPMGGPRP", "shrunken log2 fold change": 0.458},
      {"sequence": "RRIRGRPPRLPRPRPRPMGMPRP", "shrunken log2 fold change": 0.886},
      {"sequence": "RRIRGRPPRLPRPRPRPMIYPRP", "shrunken log2 fold change": 0.0378},
      {"sequence": "RRIRGRPPRLPRPRPRPMKKPRP", "shrunken log2 fold change": 1.17},
      {"sequence": "RRIRGRPPRLPRPRPRPMLRPRP", "shrunken log2 fold change": 0.117},
      {"sequence": "RRIRGRPPRLPRPRPRPMNQPRP", "shrunken log2 fold change": 0.0945},
      {"sequence": "RRIRGRPPRLPRPRPRPMNRPRP", "shrunken log2 fold change": 0.022},
      {"sequence": "RRIRGRPPRLPRPRPRPMQCPRP", "shrunken log2 fold change": -0.0159},
      {"sequence": "RRIRGRPPRLPRPRPRPMTEPRP", "shrunken log2 fold change": 0.0819}
    ]}
  ]
}
